Data taken from patent publication WO1996020011A1.

Target: LoVo tumour cells (carcinoembryonic antigen, the antigen of A5B7, on the cells) (human) (UniProt P06731)
Assay: binding of the 125I-labelled conjugate to LoVo tumour cells, method of Lindmo et al.

UniProt P06731, sequence (P06731 35-702): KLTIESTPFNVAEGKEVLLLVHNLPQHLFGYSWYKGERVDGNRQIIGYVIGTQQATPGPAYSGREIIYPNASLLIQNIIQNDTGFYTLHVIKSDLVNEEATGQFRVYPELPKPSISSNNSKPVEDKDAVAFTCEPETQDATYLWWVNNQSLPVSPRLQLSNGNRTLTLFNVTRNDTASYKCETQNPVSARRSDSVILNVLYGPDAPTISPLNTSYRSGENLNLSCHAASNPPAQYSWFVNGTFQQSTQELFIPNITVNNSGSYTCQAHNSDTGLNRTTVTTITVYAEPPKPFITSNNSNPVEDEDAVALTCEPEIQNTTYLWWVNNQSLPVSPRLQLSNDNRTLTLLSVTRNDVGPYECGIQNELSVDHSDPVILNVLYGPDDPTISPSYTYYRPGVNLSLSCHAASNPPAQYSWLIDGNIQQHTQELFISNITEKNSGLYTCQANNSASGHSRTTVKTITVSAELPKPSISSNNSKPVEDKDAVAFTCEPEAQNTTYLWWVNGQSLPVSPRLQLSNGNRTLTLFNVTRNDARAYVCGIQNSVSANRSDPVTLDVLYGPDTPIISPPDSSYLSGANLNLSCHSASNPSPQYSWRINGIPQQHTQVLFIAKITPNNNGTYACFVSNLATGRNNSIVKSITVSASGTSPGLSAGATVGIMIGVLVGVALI

immunoreactivity retained after radioiodination: > 50%
Substance: murine A5B7 F(ab')2-bovine pancreatic ribonuclease conjugate, radioiodinated with 125I (from UniProt P61823 27-150)
